Test results: article doi:10.1101/2025.07.15.665015 (bioRxiv, 2025)

What was measured:
[1] = target: the molecule itself; assay: single-molecule TIRF two-colour co-localisation
[2] = target: T1, PKR (Homo sapiens, UniProt P19525 1-551); assay: competition
[3] = target: PKRΔKD (Homo sapiens, UniProt P19525 1-184, del185-551); assay: single-molecule colocalization
[4] = target: T1, PKR; assay: single-molecule colocalization
[5] = target: T1, PKR; assay: competition; remark: listed apart in the source
[6] = target: T1, PKR; assay: single-molecule colocalization; remark: listed apart in the source

B1: PKR(K-E) (K150E and K154E), Cy3-labelled (enzyme, human, UniProt P19525 1-551, looked up)
chain: MAGDLSAGFFMEELNTYRQKQGVVLKYQELPNSGPPHDRRFTFQVIIDGREFPEGEGRSKKEAKNAAAKLAVEILNKEKKAVSPLLLTTTNSSEGLSMGNYIGLINRIAQKKRLTVNYEQCASGVHGPEGFHYKCKMGQKEYSIGTGSTEQEAEQLAAKLAYLQILSEETSVKSDYLSSGSFATTCESQSNSLVTSTLASESSSEGDFSADTSEINSNSDSLNSSSLLMNGLRNNQRKAKRSLAPRFDLPDMKETKYTVDKRFGMDFKEIELIGSGGFGQVFKAKHRIDGKTYVIKRVKYNNEKAEREVKALAKLDHVNIVHYNGCWDGFDYDPETSDDSLESSDYDPENSKNSSRSKTKCLFIQMEFCDKGTLEQWIEKRRGEKLDKVLALELFEQITKGVDYIHSKKLIHRDLKPSNIFLVDTKQVKIGDFGLVTSLKNDGKRTRSKGTLRYMSPEQISSQDYGKEVDLYALGLILAELLHVCDTAFETSKFFTDLRDGIISDIFDKKEKTLLQKLLSKKPEDRPNTSEILRTLTVWKKSPEKNERHTC
modifications: Cy3 at the N-terminus, by sortase-mediated ligation of the peptide Cy3-CLPETGG
[1]
  binding result: binds

B2: 33-bp dsRNA (dsRNA)
RNA 1: GGGUUUUCCCAGUCACGACGUUGUAAAACGACG
RNA 2: CGUCGUUUUACAACGUCGUGACUGGGAAAACCC
[2]
  binding result: binds

B3: 79-bp dsRNA (dsRNA)
RNA 1: GGGUUUUCCCAGUCACGACGUUGUAAAACGACGGCCAGUGAAUUCGAGCUCGGUACCCGGGGAUCCUCUAGAGUCGACC
RNA 2: GGUCGACUCUAGAGGAUCCCCGGGUACCGAGCUCGAAUUCACUGGCCGUCGUUUUACAACGUCGUGACUGGGAAAACCC
[3]
  binding result: binds
[4]
  binding result: binds

B4: 25-bp dsRNA (dsRNA)
RNA 1: GGGUUUUCCCAGUCACGACGUUGUA
RNA 2: UACAACGUCGUGACUGGGAAAACCC
[5]
  binding result: binds

B5: mini-VA (structured_RNA)
RNA: GGGUAUCAUGGCGGACGACCGGGGUUCGAACCCCGGAUCCGGCCGUCCGCCGUGAUACCC
[6]
  binding result: binds
